The experiment has as its target T1, TGIF1_(256–401), recombinant truncation covering RD2 (human, UniProt Q15583-1 256-401).
T1 construct: two additional residues left at the N-terminus after thrombin removal of the purification tag; 15N-labelled in the NMR titration; also called TGIF1 RD2 truncation; TGIF1 M256–A401
As to the kind of experiment: NMR titration; 0.1 mM 15N-labelled TGIF1 truncation mixed with non-labelled SIN3A PAH2 at molar ratios 1:0 to 1:2; 1H-15N HSQC; 20 mM HEPES, 80 mM NaCl, 2 mM DTT, 0.05% NaN3, pH 6.4, 90% H2O/10% D2O; 293 K (25 °C) as printed. Particulars: both partners purified.

The text below walks through data of paper PMC8657803, “Structural Insight into the Binding of TGIF1 to SIN3A PAH2 Domain through a C-Terminal Amphipathic Helix” (International Journal of Molecular Sciences, 2021).

T1 sequence (Q15583 other isoform, or with tags, fused parts or gaps): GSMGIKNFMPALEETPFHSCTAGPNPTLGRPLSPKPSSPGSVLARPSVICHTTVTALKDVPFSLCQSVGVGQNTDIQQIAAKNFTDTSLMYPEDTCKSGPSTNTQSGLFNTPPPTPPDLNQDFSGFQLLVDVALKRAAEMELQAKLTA

B1: SIN3A PAH2 (residues S295–N384), recombinant (domain or fragment, human, UniProt Q96ST3 295-384, looked up)
chain: SLQNNQPVEFNHAINYVNKIKNRFQGQPDIYKAFLEILHTYQKEQRNAKEAGGNYTPALTEQEVYAQVARLFKNQEDLLSEFGQFLPDAN
notes: SIN3A, human, paired amphipathic helix domain 2 (PAH2), residues S295-N384; Non-labelled
In the case of B1, the binding result is given as “binds”.
